In PMC3601010 (BMC Biochemistry, 2013):
Ends that are not written are not given here.

Legend:
[1] = target: T1, α-thrombin (UniProt P00734 364-622); experiment: cell-based or functional assay
[2] = target: T1, α-thrombin; experiment: SPR; competition: BIAcore X, 25°C; biotinylated HCII 1-75 on streptavidin-coated chip; peptides combined with 250 nM thrombin immediately before flowing over the chip; Ki from IC50 and the KD of 340 nM; conditions: both partners purified
[3] = target: T1, α-thrombin; experiment: ELISA; competition: HCII 1-75 immobilised on microtiter wells; competitor peptides added with 5 nM α-thrombin; ratio of absorbance with and without competitor; IC50 by linear regression of log-transformed plots; conditions: both partners purified

B1: HCII 54-75 (synthetic peptide containing residues 54-75 of human HCII and a nonapeptide N-terminal tag) (peptide)
chain: GEEDDDYLDLEKIFSEDDDYID
modifications: not fully specified (N-terminus); ends and bridges not checked; also: nonapeptide N-terminal tag, unmodified amino terminus
fold reduction of the apparent second-order rate constant of inhibition of 14 nM thrombin by 140 nM plasma-derived HCII with 55 μg/mL standard heparin, 250 μM peptide (Figure 5A) [1]: 1.6 fold | fold reduction of the apparent second-order rate constant of inhibition of thrombin by plasma-derived HCII with 1.4 μM dermatan sulfate, 250 μM peptide (Figure 5B) [1]: 1.6 fold | Ki [2]: 8.5 µM | Ki of equimolar HCII 54-75 and HCII 1-53 [2]: 13 µM | IC50 [3]: 110 µM
